The values that follow are results of earlier work, collected in article PMC11815838.

This data set concerns the target Her2 (ErbB2) ectodomain (UniProt P04626). The data set is described as follows: SPR (surface plasmon resonance). Conditions: not stated (pH 7.4 and pH 5.0 running conditions; buffers given only in ref 2).

On to bH1 Fab variant P1 (H-N28H) H-N28H, for which the KD reads like this: (pH 5.0) 16 nM; (pH 7.4) 3.5 nM. Take bH1 Fab variant P2 (H-Y33H) H-Y33H: the KD by setting is: (pH 5.0) 1200 nM; (pH 7.4) 120 nM. With bH1 Fab variant P4 (H-Y56H) H-Y56H, the KD (pH 7.4) was 170 nM. In the case of bH1 Fab variant P5 (H-R58H) H-R58H, the KD was 98 nM (pH 5.0) and 310 nM (pH 7.4). Take bH1 Fab variant P6 (H-Y100aH) H-Y100aH: under “pH 7.4”, the dissociation constant KD was 10 nM.

As for bH1 Fab variant P7 (L-R30aH) L-R30aH, the KD is, setting by setting: (pH 5.0) 17 nM; (pH 7.4) 5.7 nM.

For the substance bH1 Fab variant P8 (L-S30bH) L-S30bH, the KD runs as follows: (pH 5.0) 9.9 nM; (pH 7.4) 3.4 nM.
